What all share (assay): SPR
Assay [1] addresses ZNRF3-A10.
Assay [2] addresses RNF130-A1.
In assay [3] the target is RNF43-A7.

B1: human ZNRF3 extracellular domain (domain or fragment)
chain: KETAFVEVVLFESSPSGDYTTYTTGLTGRFSRAGATLSAEGEIVQMHPLGLCNNNDEEDLYEYGWVGVVKLEQPELDPKPCLTVLGKAKRAVQRGATAVIFDVSENPEAIDQLNQGSEDPLKRPVVYVKGADAIKLMNIVNKQKVARARIQHRPPRQPTEYFDM
modifications: biotinylated (BirA ligase)
B1: in assay [1], the Kd (commonly the equilibrium constant for the complex coming apart) was 0.7 nM.

B2: human RNF130 (GOLIATH) extracellular domain (domain or fragment)
chain: DNASQEYYTALINVTVQEPGRGAPLTFRIDRGRYGLDSPKAEVRGQVLAPLPLHGVADHLGCDPQTRFFVPPNIKQWIALLQRGNCTFKEKISRAAFHNAVAVVIYNNKSKEEPVTMTHPGTGDIIAVMITELRGKDILSYLEKNISVQMTIAVGTRMPPKNFSRGS
modifications: biotinylated (BirA ligase)
B2 had a Kd in assay [2] of 8.2 nM.

B3: human RNF43 extracellular domain (domain or fragment)
chain: GFGRTGLVLAAAVESERSAEQKAIIRVIPLKMDPTGKLNLTLEGVFAGVAEITPAEGKLMQSHPLYLCNASDDDNLEPGFISIVKLESPRRAPRPCLSLASKARMAGERGASAVLFDITEDRAAAEQLQQPLGLTWPVVLIWGNDAEKLMEFVYKNQKAHVRIELKEPPAWPDY
modifications: biotinylated (BirA ligase)
With B3, the Kd in assay [3] came out at 3.8 nM. In other words, the single-digit nanomolar range.

The values above are taken from publication PMC10127277 (2023).
